The results in this text go back to article PMC10257715, “Allosteric activation of cell wall synthesis during bacterial growth” (Nature Communications, 2023).

The term stoichiometry N denotes the number of molecules, sites or subunits per partner or assembly.

This data set concerns the molecule itself. Briefly: cryo-EM structure; purified RodA-PBP2 complex in 0.02% DDM, 350 mM NaCl, 20 mM HEPES pH 7.5; Titan Krios 300 kV; low-resolution maps.

B1: Escherichia coli PBP2, wild type, of ^EcRodA-PBP2^WT (cryo-EM sample) (enzyme, UniProt P0AD65 1-633, looked up)
chain: MKLQNSFRDYTAESALFVRRALVAFLGILLLTGVLIANLYNLQIVRFTDYQTRSNENRIKLVPIAPSRGIIYDRNGIPLALNRTIYQIEMMPEKVDNVQQTLDALRSVVDLTDDDIAAFRKERARSHRFTSIPVKTNLTEVQVARFAVNQYRFPGVEVKGYKRRYYPYGSALTHVIGYVSKINDKDVERLNNDGKLANYAATHDIGKLGIERYYEDVLHGQTGYEEVEVNNRGRVIRQLKEVPPQAGHDIYLTLDLKLQQYIETLLAGSRAAVVVTDPRTGGVLALVSTPSYDPNLFVDGISSKDYSALLNDPNTPLVNRATQGVYPPASTVKPYVAVSALSAGVITRNTTLFDPGWWQLPGSEKRYRDWKKWGHGRLNVTRSLEESADTFFYQVAYDMGIDRLSEWMGKFGYGHYTGIDLAEERSGNMPTREWKQKRFKKPWYQGDTIPVGIGQGYWTATPIQMSKALMILINDGIVKVPHLLMSTAEDGKQVPWVQPHEPPVGDIHSGYWELAKDGMYGVANRPNGTAHKYFASAPYKIAAKSGTAQVFGLKANETYNAHKIAERLRDHKLMTAFAPYNNPQVAVAMILENGGAGPAVGTLMRQILDHIMLGDNNTDLPAENPAVAAAEDH
notes: Forms dimers of the RodA-PBP2 complex when overexpressed; also called ^EcPBP2; ^EcWT; source: overexpressed, purified
As to B1, the “stoichiometry N” value worked out at 2.
